Laboratory results reported in IntAct's records for PubMed 35512704.

B1: Mothers against decapentaplegic homolog 4 (Homo sapiens), Q13485 (parent)
chain: MDNMSITNTPTSNDACLSIVHSLMCHRQGGESETFAKRAIESLVKKLKEKKDELDSLITAITTNGAHPSKCVTIQRTLDGRLQVAGRKGFPHVIYARLWRWPDLHKNELKHVKYCQYAFDLKCDSVCVNPYHYERVVSPGIDLSGLTLQSNAPSSMMVKDEYVHDFEGQPSLSTEGHSIQTIQHPPSNRASTETYSTPALLAPSESNATSTANFPNIPVASTSQPASILGGSHSEGLLQIASGPQPGQQQNGFTGQPATYHHNSTTTWTGSRTAPYTPNLPHHQNGHLQHHPPMPPHPGHYWPVHNELAFQPPISNHPAPEYWCSIAYFEMDVQVGETFKVPSSCPIVTVDGYVDPSGGDRFCLGQLSNVHRTEAIERARLHIGKGVQLECKGEGDVWVRCLSDHAVFVQSYYLDREAGRAPGDAVHKIYPSAYIKVFDLRQCHRQMQQQAATAQAAAAAQAAAVAGNIPGPGSVGGIAPAISLSAAAGIGVDDLRRLCILRMSFVKGWGPDYPRQSIKETPCWIEIHLHRALQLLDEVLHTMPIADPQPLD
partner: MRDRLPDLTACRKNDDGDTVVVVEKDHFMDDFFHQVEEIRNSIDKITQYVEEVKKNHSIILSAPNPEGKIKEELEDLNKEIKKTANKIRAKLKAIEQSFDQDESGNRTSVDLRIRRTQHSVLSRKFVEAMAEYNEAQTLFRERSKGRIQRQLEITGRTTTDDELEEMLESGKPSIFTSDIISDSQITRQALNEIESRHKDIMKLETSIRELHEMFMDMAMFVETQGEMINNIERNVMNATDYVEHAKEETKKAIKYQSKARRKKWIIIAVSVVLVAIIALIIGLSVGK
B2: Mothers against decapentaplegic homolog 4 (Homo sapiens), Q13485 (parent)
chain: B1 chain
partner: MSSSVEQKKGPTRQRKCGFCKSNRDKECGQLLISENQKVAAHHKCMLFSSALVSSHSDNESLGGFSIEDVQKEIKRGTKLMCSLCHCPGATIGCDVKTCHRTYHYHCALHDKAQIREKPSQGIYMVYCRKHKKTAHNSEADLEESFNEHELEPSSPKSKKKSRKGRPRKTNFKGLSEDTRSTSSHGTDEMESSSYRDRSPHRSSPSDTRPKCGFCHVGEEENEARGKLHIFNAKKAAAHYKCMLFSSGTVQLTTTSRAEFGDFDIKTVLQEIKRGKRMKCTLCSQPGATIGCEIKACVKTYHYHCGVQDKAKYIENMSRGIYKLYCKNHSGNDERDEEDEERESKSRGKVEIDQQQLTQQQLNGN
B3: Mothers against decapentaplegic homolog 4 (Homo sapiens), Q13485 (parent)
chain: B1 chain
partner: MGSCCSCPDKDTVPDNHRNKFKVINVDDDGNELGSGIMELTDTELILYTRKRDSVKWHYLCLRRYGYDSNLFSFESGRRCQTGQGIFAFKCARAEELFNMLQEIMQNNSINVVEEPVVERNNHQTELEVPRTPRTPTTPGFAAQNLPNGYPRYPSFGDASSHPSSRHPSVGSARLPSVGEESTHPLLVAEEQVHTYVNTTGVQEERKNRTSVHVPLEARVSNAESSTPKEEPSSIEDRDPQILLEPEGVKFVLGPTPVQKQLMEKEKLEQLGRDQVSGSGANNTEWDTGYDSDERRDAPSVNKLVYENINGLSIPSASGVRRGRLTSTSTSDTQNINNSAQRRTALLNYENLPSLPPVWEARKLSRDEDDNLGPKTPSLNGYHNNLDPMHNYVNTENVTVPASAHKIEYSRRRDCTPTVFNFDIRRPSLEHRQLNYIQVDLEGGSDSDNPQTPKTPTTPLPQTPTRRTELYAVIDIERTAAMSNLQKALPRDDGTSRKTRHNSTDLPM
B4: Mothers against decapentaplegic homolog 4 (Homo sapiens), Q13485 (parent)
chain: B1 chain
partner: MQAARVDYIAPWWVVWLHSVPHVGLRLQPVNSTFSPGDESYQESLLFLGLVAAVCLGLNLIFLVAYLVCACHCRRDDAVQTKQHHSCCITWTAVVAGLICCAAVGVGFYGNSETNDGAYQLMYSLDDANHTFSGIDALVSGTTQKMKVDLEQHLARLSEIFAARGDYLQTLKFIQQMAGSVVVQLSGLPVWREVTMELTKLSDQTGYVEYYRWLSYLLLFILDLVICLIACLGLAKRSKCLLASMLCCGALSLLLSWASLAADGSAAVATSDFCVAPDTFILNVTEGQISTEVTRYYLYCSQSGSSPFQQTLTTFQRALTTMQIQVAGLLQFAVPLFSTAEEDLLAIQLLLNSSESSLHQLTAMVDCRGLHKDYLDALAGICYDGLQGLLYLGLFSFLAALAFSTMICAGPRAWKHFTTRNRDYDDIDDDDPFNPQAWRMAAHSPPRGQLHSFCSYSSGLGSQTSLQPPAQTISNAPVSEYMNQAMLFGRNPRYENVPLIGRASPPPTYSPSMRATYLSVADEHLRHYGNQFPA
B5: Mothers against decapentaplegic homolog 4 (Homo sapiens), Q13485 (parent)
chain: B1 chain
partner: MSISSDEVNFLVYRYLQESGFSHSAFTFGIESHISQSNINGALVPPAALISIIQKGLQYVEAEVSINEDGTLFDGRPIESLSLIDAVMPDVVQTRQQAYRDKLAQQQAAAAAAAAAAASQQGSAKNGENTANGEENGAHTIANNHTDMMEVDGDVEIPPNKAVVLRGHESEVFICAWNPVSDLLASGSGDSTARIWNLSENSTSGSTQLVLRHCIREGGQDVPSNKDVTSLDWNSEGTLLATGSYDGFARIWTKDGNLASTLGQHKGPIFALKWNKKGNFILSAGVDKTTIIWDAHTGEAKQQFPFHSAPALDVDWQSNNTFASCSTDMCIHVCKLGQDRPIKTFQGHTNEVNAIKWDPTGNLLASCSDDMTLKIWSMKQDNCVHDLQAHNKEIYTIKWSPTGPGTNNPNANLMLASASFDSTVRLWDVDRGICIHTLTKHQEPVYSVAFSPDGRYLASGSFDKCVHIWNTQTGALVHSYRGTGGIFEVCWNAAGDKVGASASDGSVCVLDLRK
B6: Speckle-type POZ protein (Homo sapiens), O43791 (parent)
chain: MSRVPSPPPPAEMSSGPVAESWCYTQIKVVKFSYMWTINNFSFCREEMGEVIKSSTFSSGANDKLKWCLRVNPKGLDEESKDYLSLYLLLVSCPKSEVRAKFKFSILNAKGEETKAMESQRAYRFVQGKDWGFKKFIRRDFLLDEANGLLPDDKLTLFCEVSVVQDSVNISGQNTMNMVKVPECRLADELGGLWENSRFTDCCLCVAGQEFQAHKAILAARSPVFSAMFEHEMEESKKNRVEINDVEPEVFKEMMCFIYTGKAPNLDKMADDLLAAADKYALERLKVMCEDALCSNLSVENAAEILILADLHSADQLKTQAVDFINYHASDVLETSGWKSMVVSHPHLVAEAYRSLASAQCPFLGPPRKRLKQS
partner: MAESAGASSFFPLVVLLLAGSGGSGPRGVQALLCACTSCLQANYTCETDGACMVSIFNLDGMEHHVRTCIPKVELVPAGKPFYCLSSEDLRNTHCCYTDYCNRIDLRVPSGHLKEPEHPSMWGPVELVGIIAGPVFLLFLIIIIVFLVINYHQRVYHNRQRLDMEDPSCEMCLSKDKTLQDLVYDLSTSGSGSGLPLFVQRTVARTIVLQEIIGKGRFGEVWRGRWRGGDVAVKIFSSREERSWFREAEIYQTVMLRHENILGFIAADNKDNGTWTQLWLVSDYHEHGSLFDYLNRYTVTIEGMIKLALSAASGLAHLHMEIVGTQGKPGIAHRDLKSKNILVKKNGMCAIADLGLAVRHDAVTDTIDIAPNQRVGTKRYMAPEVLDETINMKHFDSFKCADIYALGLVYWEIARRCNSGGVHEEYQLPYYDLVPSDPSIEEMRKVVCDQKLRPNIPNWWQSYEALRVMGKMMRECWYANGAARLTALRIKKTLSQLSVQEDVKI

Variants of: B1
Settings: with stx2_human STX2, P32856

Variant | effect of a mutation on the interaction
G386D | with no effect

Variants of: B2
Settings: with phf6_human PHF6, Q8IWS0

Variant | effect of a mutation on the interaction
R361C | with no effect

Variants of: B3
Settings: with frs2_human FRS2, Q8WU20

Variant | effect of a mutation on the interaction
R361C | with no effect

Variants of: B3
Settings: with frs2_human FRS2, Q8WU20
Remark: another data set of the same source

Variant | effect of a mutation on the interaction
R361H | with no effect

Variants of: B4
Settings: with ttyh2_human TTYH2, Q9BSA4

Variant | effect of a mutation on the interaction
G386D | with no effect

Variants of: B5
Settings: with tbl1r_human TBL1XR1, Q9BZK7

Variant | effect of a mutation on the interaction
G386D | with no effect

Variants of: B6
Settings: with acv1b_human ACVR1B

Variant | effect of a mutation on the interaction
MSRVPSPPPPAEMSSGPVAESWCYTQIKVVKFSYMWTINNFSFCREEMGEVIKSSTFSSGANDKLKWCLRVNPKGLDEESKDYLSLCLLLVSCPKSEVRAKFKFSILNAKGEETKAMESQRAYRFVQGKDWGFKKFIRRDFLLDEANGLLPDDKLTLFCEVSVVQDSVNISGQNTMNMVKVPECRLADELGGLWENSRFTDCCLCVAGQEFQAHKAILAARSPVFSAMFEHEMEESKKNRVEINDVEPEVFKEMMCFIYTGKAPNLDKMADDLLAAADKYALERLKVMCEDALCSNLSVENAAEILILADLHSADQLKTQAVDFINYHASDVLETSGWKSMVVSHPHLVAEAYRSLASAQCPFLGPPRKRLKQS [Y87C] | with no effect

Variants of: B6
Settings: with acv1b_human ACVR1B
Remark: another data set of the same source

Variant | effect of a mutation on the interaction
MSRVPSPPPPAEMSSGPVAESWCYTQIKVVKFSYMWTINNFSFCREEMGEVIKSSTFSSGANDKLKWCLRVNPKGLDEESKDYLSLYLLLVSCPKSEVRAKCKFSILNAKGEETKAMESQRAYRFVQGKDWGFKKFIRRDFLLDEANGLLPDDKLTLFCEVSVVQDSVNISGQNTMNMVKVPECRLADELGGLWENSRFTDCCLCVAGQEFQAHKAILAARSPVFSAMFEHEMEESKKNRVEINDVEPEVFKEMMCFIYTGKAPNLDKMADDLLAAADKYALERLKVMCEDALCSNLSVENAAEILILADLHSADQLKTQAVDFINYHASDVLETSGWKSMVVSHPHLVAEAYRSLASAQCPFLGPPRKRLKQS [F102C] | with no effect
